Values quoted from earlier work in patent US5925739A, “Pharmaceutical formulation for subcutaneous intramuscular or intradermal administration of factor VIII” (Pharmacia & Upjohn AB, priority 1994, dated 1999).

Settings: hemophilia B patients, injected into subcutaneous tissue

Which “transport into the circulation” value does the source give for “human factor IX: coagulation factor IX, molecular mass of about 56 kDa” here?
Its value is “poorly and very slowly transported into the circulation”.
